# Results published in publication PMC13323077, “Hydrophobic tuning with non-canonical amino acids in a copper metalloenzyme” (Nature Chemistry, 2026).
# B1: ScSLAC (Streptomyces coelicolor A3(2)) (protein)
# chain: APAAKGITARTAPAGGEVRHLKMYAEKLADGQMGYGFEKGKASVPGPLIEVNEGDTLHIEFTNTMDVRASLHVHGLDYEISSDGTAMNKSDVEPGGTRTYTWRTHKPGRRDDGTWRPGSAGYWHYHDHVVGTEHGTGGIRNGLYGPVIVRRKGDVLPDATHTIVFNDMTINNRKPHTGPDFEATVGDRVEIVMITHGEYYHTFHMHGHRWADNRTGILTGPDDPSRVIDNKITGPADSFGFQIIAGEGVGAGAWMYHCHVQSHSDMGMVGLFLVKKPDGTIPGYEPHEHGGATAKSGESGEPTGGAAAHEHEH
# notes: N-terminal signal peptide (residues 2-30) removed, C-terminal His6, pET28, expressed in E. coli B-95deltaAdeltafabR, Cu-loaded; homotrimer (known biology)
# B2: ScSLAC (Streptomyces coelicolor A3(2); M296W/S292P) (protein)
# chain: APAAKGITARTAPAGGEVRHLKMYAEKLADGQMGYGFEKGKASVPGPLIEVNEGDTLHIEFTNTMDVRASLHVHGLDYEISSDGTAMNKSDVEPGGTRTYTWRTHKPGRRDDGTWRPGSAGYWHYHDHVVGTEHGTGGIRNGLYGPVIVRRKGDVLPDATHTIVFNDMTINNRKPHTGPDFEATVGDRVEIVMITHGEYYHTFHMHGHRWADNRTGILTGPDDPSRVIDNKITGPADSFGFQIIAGEGVGAGAWMYHCHVQPHSDWGMVGLFLVKKPDGTIPGYEPHEHGGATAKSGESGEPTGGAAAHEHEH
# notes: as for B1
# B3: ScSLAC (Streptomyces coelicolor A3(2); M298F) (protein)
# chain: APAAKGITARTAPAGGEVRHLKMYAEKLADGQMGYGFEKGKASVPGPLIEVNEGDTLHIEFTNTMDVRASLHVHGLDYEISSDGTAMNKSDVEPGGTRTYTWRTHKPGRRDDGTWRPGSAGYWHYHDHVVGTEHGTGGIRNGLYGPVIVRRKGDVLPDATHTIVFNDMTINNRKPHTGPDFEATVGDRVEIVMITHGEYYHTFHMHGHRWADNRTGILTGPDDPSRVIDNKITGPADSFGFQIIAGEGVGAGAWMYHCHVQSHSDMGFVGLFLVKKPDGTIPGYEPHEHGGATAKSGESGEPTGGAAAHEHEH
# notes: as for B1
# B4: ScSLAC (Streptomyces coelicolor A3(2); M298L) (protein)
# chain: APAAKGITARTAPAGGEVRHLKMYAEKLADGQMGYGFEKGKASVPGPLIEVNEGDTLHIEFTNTMDVRASLHVHGLDYEISSDGTAMNKSDVEPGGTRTYTWRTHKPGRRDDGTWRPGSAGYWHYHDHVVGTEHGTGGIRNGLYGPVIVRRKGDVLPDATHTIVFNDMTINNRKPHTGPDFEATVGDRVEIVMITHGEYYHTFHMHGHRWADNRTGILTGPDDPSRVIDNKITGPADSFGFQIIAGEGVGAGAWMYHCHVQSHSDMGLVGLFLVKKPDGTIPGYEPHEHGGATAKSGESGEPTGGAAAHEHEH
# notes: as for B1
# How the values were obtained:
# purified protein [1] = substrate: CC(=O)N1c2ccc(O)cc2Oc2cc(O)ccc21; test: purified protein; format: biochemical, Streptomyces coelicolor; conditions: pH 7.0, 25 °C, 20 mM Britton-Robinson buffer
# purified protein [2] = substrate: CCn1c(=NN=c2sc3cc(S(=O)(=O)O)ccc3n2CC)sc2cc(S(=O)(=O)O)ccc21; test: purified protein; format: biochemical, Streptomyces coelicolor; conditions: pH 4.0, 25 °C, 20 mM Britton-Robinson buffer
# [3] = 500 µM CuCl2, air O2, 1 µM enzyme
# [4] = 1 mM CuCl2, air O2, 1,000 nM enzyme
protein,measurement,setting,value
B1,Km,purified protein [1]; [3],0.25(3) mM
same,kcat,purified protein [1]; [3],0.045(4) min-1
same,Km,"purified protein [2]; 1 mM CuCl2, air O2, 200 nM enzyme",0.96(5) mM
B2,Km,"purified protein [1]; 500 µM CuCl2, air O2",0.144(5) mM
same,kcat,"purified protein [1]; 500 µM CuCl2, air O2",0.405(4) min-1
B3,Km,purified protein [2]; [4],0.4(1) mM
same,kcat,purified protein [2]; [4],0.19(3) s-1
B4,Km,purified protein [2]; [4],1.19(7) mM
same,kcat,purified protein [2]; [4],0.32(1) s-1
